Assay results: patent US20140087995A1 (published 2014)
Numbered stars: 1 amine (or outer) side, 2 acyl side, 3 side chain; on linkers, the order of the positions; unused ones are H or OH. Bridge positions count the residues as written; N and C are the ends. * marks the point of attachment. C20 diacid = O=C(O)CCCCCCCCCCCCCCCCCCC(=O)*; γGlu = O=C(O)[C@H](CCC(=O)[*:2])N[*:1]

How the values were obtained:
[1] = target: T1, rat amylin receptor (rat calcitonin receptor + rat RAMP 3) (rat, UniProt P32214 25-516; Q9JJ73 23-147); assay: SPA competition with 125I-rat amylin, membranes of BHK cells with rat calcitonin receptor + rat RAMP3 (Assay VI)
T1 construct: whole, on cells; Membranes of transiently transfected BHK tk'ts 13 cells (Assay VI); also called rAmylin-R; rat amylin 3(a) receptor
T1 sequence (looked up) 1: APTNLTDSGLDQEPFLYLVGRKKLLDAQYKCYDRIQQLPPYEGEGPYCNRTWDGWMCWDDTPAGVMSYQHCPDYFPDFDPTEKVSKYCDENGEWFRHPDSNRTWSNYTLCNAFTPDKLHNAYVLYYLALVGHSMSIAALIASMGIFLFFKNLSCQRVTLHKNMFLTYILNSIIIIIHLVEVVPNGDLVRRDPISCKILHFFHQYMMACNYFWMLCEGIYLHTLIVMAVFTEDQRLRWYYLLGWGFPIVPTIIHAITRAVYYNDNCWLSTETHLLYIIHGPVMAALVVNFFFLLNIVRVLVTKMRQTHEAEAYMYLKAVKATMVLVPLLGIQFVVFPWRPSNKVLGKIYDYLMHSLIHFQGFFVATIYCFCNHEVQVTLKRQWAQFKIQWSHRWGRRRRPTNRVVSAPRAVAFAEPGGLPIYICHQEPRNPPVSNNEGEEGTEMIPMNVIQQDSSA
T1 sequence (looked up) 2: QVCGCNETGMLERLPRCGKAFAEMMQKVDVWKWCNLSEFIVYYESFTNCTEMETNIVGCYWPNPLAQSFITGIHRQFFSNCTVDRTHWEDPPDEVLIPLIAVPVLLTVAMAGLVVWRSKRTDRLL

rat calcitonin receptor [2] = target: T2, rat calcitonin receptor (rat, UniProt P32214 25-516); assay: SPA competition with 125I-calcitonin, membranes of BHK cells with rat calcitonin receptor (Assay VIII)
T2 construct: whole, on cells; Membranes of transiently transfected BHK tk'ts 13 cells (Assay VIII); also called rCTR
T2 sequence (looked up): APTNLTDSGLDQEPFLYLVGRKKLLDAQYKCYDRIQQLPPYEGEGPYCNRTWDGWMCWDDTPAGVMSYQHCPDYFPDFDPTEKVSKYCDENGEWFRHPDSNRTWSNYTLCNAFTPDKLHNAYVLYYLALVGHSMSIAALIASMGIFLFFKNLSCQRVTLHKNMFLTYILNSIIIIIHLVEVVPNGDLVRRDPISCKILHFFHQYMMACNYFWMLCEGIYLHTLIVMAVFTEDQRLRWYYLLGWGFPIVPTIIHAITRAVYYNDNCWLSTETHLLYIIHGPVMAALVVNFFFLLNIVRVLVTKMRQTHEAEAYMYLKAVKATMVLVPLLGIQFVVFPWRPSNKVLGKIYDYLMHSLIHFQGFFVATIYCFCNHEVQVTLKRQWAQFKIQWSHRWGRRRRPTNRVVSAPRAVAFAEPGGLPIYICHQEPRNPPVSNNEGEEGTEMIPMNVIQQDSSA

rat calcitonin receptor [3] = target: T2, rat calcitonin receptor; assay: ratio IC50 rat calcitonin receptor / IC50 rat amylin receptor (reference)
[4] = target: T3, human calcitonin receptor (human, UniProt P30988 25-474); assay: ratio IC50 human calcitonin receptor / IC50 human amylin receptor (reference)
T3 construct: whole, on cells; Membranes of a stably transfected BHK cell line (Assay VII); also called hCTR; hCT
T3 sequence (looked up): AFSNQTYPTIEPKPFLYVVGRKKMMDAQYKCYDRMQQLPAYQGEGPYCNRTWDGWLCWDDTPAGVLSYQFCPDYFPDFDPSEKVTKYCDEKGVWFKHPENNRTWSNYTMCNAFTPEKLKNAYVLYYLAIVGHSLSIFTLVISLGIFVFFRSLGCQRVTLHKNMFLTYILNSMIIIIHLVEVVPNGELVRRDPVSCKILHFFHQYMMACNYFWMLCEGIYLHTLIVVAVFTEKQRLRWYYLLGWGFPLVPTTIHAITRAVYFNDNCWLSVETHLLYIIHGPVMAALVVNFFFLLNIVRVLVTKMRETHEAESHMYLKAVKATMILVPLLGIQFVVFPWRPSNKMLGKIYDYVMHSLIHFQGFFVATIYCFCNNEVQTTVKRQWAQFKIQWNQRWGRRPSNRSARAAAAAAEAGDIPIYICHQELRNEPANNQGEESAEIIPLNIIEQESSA
Summary of the method: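 Scintillation proximity competition binding on cell membranes at 35 ng/μL with SPA beads, in 50 mM Hepes pH 7.4, 1 mM CaCl2, 5 mM MgCl₂, 0.1% OA, 0.02% Tween20. Incubated 120 min at 25° C with shaking. IC₅₀ from one-site competition fit.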

IC50 [1]: 0.674 nM
IC50 (rat calcitonin receptor [2]): 65.9 nM
Ratio rCT/rAmylin binding (rat calcitonin receptor [3]): 97.7
Ratio hCT/hAmylin binding [4]: 36.2
B1: N^-1-[(4S)-4-carboxy-4-(19-carboxynonadecanoylamino)butanoyl]-Gly[Arg1,His14,Arg17,Pro21,Pro27,Pro34]-h-amylin (peptide)
peptide: {C20 diacid-γGlu}-GRCNTATCATQRLAHFLRHSSPNFGAIPSSTNVGPNTY-NH2
modifications: disulfide 3-8
SMILES: CC[C@H](C)[C@H](NC(=O)[C@H](C)NC(=O)CNC(=O)[C@H](Cc1ccccc1)NC(=O)[C@H](CC(N)=O)NC(=O)[C@@H]1CCCN1C(=O)[C@H](CO)NC(=O)[C@H](CO)NC(=O)[C@H](Cc1c[nH]cn1)NC(=O)[C@H](CCCNC(=N)N)NC(=O)[C@H](CC(C)C)NC(=O)[C@H](Cc1ccccc1)NC(=O)[C@H](Cc1c[nH]cn1)NC(=O)[C@H](C)NC(=O)[C@H](CC(C)C)NC(=O)[C@H](CCCNC(=N)N)NC(=O)[C@H](CCC(N)=O)NC(=O)[C@@H](NC(=O)[C@H](C)NC(=O)[C@@H]1CSSC[C@H](NC(=O)[C@H](CCCNC(=N)N)NC(=O)CNC(=O)CC[C@H](NC(=O)CCCCCCCCCCCCCCCCCCC(=O)O)C(=O)O)C(=O)N[C@@H](CC(N)=O)C(=O)N[C@@H]([C@@H](C)O)C(=O)N[C@@H](C)C(=O)N[C@@H]([C@@H](C)O)C(=O)N1)[C@@H](C)O)C(=O)N1CCC[C@H]1C(=O)N[C@@H](CO)C(=O)N[C@@H](CO)C(=O)N[C@H](C(=O)N[C@@H](CC(N)=O)C(=O)N[C@H](C(=O)NCC(=O)N1CCC[C@H]1C(=O)N[C@@H](CC(N)=O)C(=O)N[C@H](C(=O)N[C@@H](Cc1ccc(O)cc1)C(N)=O)[C@@H](C)O)C(C)C)[C@@H](C)O
